US20090317382A1 (Genmab, published 2009)

Key:
[1] = molecular target: T1, human AChR from membrane extracts of TE671 cells (human, UniProt P02708 21-457; P11230 24-501; P07510 23-517; Q07001 22-517)
[2] = molecular target: T1, human AChR from membrane extracts of …; remark: listed apart in the source
[3] = molecular target: T1, human AChR from membrane extracts of …; remark: listed apart in the source
AChR of rhesus monkeys = molecular target: T2, AChR of rhesus monkeys (rhesus monkey (Macaca mulatta)); assay: immunohistochemistry of endplates in human and monkey biopsies, qualitative comparison of staining intensities
T2 construct: In muscle tissue (sections of biopsies, or in the living animal); also called macaque AChR; monkey receptor

human C1q [4] = molecular target: T3, human C1q (human, UniProt P02745 23-245; P02746 28-253; P02747 29-245); assay: ELISA: IgG coated at varied concentration (the concentration is that of the coating), C1q binding read as OD405, 3% human serum
T3 construct: The method names purified human C1q at 2 µg/ml; also called C1q (Quidel, A400); first component of the classical complement system
T3 sequence (P02745 23-245 limits assumed, chain 1 of 3): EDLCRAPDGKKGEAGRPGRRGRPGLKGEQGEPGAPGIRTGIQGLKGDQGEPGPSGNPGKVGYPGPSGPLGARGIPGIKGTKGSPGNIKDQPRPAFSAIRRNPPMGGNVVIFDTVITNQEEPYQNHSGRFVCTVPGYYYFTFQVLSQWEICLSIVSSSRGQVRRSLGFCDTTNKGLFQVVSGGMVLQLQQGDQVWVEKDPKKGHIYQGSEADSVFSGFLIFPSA
T3 sequence (P02746 28-253 limits assumed, chain 2 of 3): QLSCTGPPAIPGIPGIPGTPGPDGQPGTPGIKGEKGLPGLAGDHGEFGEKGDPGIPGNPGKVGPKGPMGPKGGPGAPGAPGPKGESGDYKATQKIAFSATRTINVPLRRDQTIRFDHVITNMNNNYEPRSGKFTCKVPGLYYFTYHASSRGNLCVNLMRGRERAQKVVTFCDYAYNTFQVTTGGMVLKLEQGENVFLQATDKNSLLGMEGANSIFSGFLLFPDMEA
T3 sequence (P02747 29-245 limits assumed, chain 3 of 3): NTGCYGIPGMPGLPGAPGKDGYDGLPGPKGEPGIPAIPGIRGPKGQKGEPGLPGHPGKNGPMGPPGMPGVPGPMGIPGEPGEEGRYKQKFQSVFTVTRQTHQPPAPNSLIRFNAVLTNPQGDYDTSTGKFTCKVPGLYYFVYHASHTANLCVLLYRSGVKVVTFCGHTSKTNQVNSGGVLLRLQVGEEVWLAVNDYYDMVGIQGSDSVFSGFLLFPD
Procedure: (§1) Subsequently, plates were emptied. For the C3 and C4 ELISAs the wells were washed 3 times with 200 μl PBST (PBS supplemented with 0.05% (v/v) tween-20). Subsequently, for C1q ELISA, wells were incubated with 2 μg/mi human C1q (Quidel, San Diego, Calif., USA, A400) in C1q buffer (100 μl/well, 37° C., 1 h). […] After washing the plates (3×) with PBST for the C3 and C4 ELISA and C1q buffer for the C1q ELISA, for the C1q ELISA wells were incubated with rabbit anti-human C1q (DAKO, Glostrup, Denmark, A0136), diluted in C1q buffer (1:1000, 100 μl/well, room temperature, 1 h). […] After washing the plates (3×) with PBST for the C3 and C4 ELISA and C1q buffer for the C1q ELISA, for the C1q ELISA wells were incubated with HRP-conjugated swine anti-rabbit IgG-Fc (DAKO, P0399) diluted in ELISA buffer (1:2500, 100 μl/well, room temperature, 1 h). […] Absorbance was measured at 405 nm in an ELISA plate reader (Biotek Instruments Inc., Winooski, USA). To analyze, if complement activation by human IgG isotypes depends on the source of the complement, both human and rhesus serum were tested.

C1q (3% rhesus serum) = molecular target: T4, C1q (3% rhesus serum) (Macaca mulatta); assay: ELISA: IgG coated at varied concentration (the concentration is that of the coating), C1q binding read as OD405, 3% rhesus serum
T4 construct: native protein in 3% serum; also called rhesus C1q; C1q of rhesus monkey serum
Procedure: as §1

human C1q [5] = molecular target: T3, human C1q; assay: ELISA: IgG coated at varied concentration, C1q binding read as OD405; sheet heading '3% human serum'

Row | Binder | Kd [1] [nM] | precipitation of the flag tagged antibody, percent remaining at two fold excess [1] [%] | EC50 (read off the curve) [2] [nM] | IC50 (read off the curve) [3] [nM] | fold reduced affinity compared to human receptor (AChR of rhesus monkeys) [fold] | EC50 (read off the curve) (human C1q [4]) [µg/mL] | EC50 (read off the curve) (C1q (3% rhesus serum)) [µg/mL] | binding result (human C1q [5])
1 | IgG1-637 (antibody) heavy: not shown VL: EIELTQPHSVSESPGKTVTISCTRSSGSIASNYVQWYQQRPGSSPTTVIYEDNQRPSGVPDRFSGSIDSSSNSASLTISGLKTEDEADYYCQSYDSNSGGRVFGGGTKLTVL | ~1.7 | ~50 | ~3 | ~10 | ~10 | ~2 | ~2 | –
2 | IgG4-637 (antibody, also called anti-MG) heavy: not shown light: EIELTQPHSVSESPGKTVTISCTRSSGSIASNYVQWYQQRPGSSPTTVIYEDNQRPSGVPDRFSGSIDSSSNSASLTISGLKTEDEADYYCQSYDSNSGGRVFGGGTKLTVLGQPKAAPSVTLFPPSSEELQANKATLVCLISDFYPGAVTVAWKADSSPVKAGVETTTPSKQSNNKYAASSYLSLTPEQWKSHRSYSCQVTHEGSTVEKTVAPTECS | ~1.7 | ~50 | ~3 | ~10 | – | – | – | no binding
